Reference: patent publication US20200165325A1

Tests used:
[1] = molecular target: HIV-1 Env of strain 0330.v4.c3 (HIV-1)
[2] = molecular target: HIV-1 Env of strain 0815.v3.c3 (HIV-1)
[3] = molecular target: HIV-1 Env of strain 1006_11_C3_1601 (HIV-1)
[4] = molecular target: HIV-1 Env of strain 1054_07_TC4_1499 (HIV-1)
[5] = molecular target: HIV-1 Env of strain 1056_10_TA11_1826 (HIV-1)
[6] = molecular target: HIV-1 Env of strain 211-9 (HIV-1)
[7] = molecular target: HIV-1 Env of strain 3103.v3.c10 (HIV-1)
[8] = molecular target: HIV-1 Env of strain 3415.v1.c1 (HIV-1)
[9] = molecular target: HIV-1 Env of strain 3718.v3.c11 (HIV-1)
[10] = molecular target: HIV-1 Env of strain 3817.v2.c59 (HIV-1)
[11] = molecular target: HIV-1 Env of strain 620345.c01 (HIV-1)
[12] = molecular target: HIV-1 Env of strain 6535.3 (HIV-1)
[13] = molecular target: HIV-1 Env of strain 6545.v4.c1 (HIV-1)
[14] = molecular target: HIV-1 Env of strain 6811.v7.c18 (HIV-1)
[15] = molecular target: HIV-1 Env of strain 89-F1_2_25 (HIV-1)
[16] = molecular target: HIV-1 Env of strain AC10.0.29 (HIV-1)
[17] = molecular target: HIV-1 Env of strain C1080.c03 (HIV-1)
[18] = molecular target: HIV-1 Env of strain C2101.c01 (HIV-1)
[19] = molecular target: HIV-1 Env of strain CAP210.2.00.E8 (HIV-1)
[20] = molecular target: HIV-1 Env of strain CAP45.2.00.G3 (HIV-1)
[21] = molecular target: HIV-1 Env of strain CNE17 (HIV-1)
[22] = molecular target: HIV-1 Env of strain CNE20 (HIV-1)
[23] = molecular target: HIV-1 Env of strain CNE21 (HIV-1)
[24] = molecular target: HIV-1 Env of strain CNE30 (HIV-1)
[25] = molecular target: HIV-1 Env of strain CNE53 (HIV-1)
[26] = molecular target: HIV-1 Env of strain CNE58 (HIV-1)
[27] = molecular target: HIV-1 Env of strain Ce0393_C3 (HIV-1)
[28] = molecular target: HIV-1 Env of strain Ce0682_E4 (HIV-1)
[29] = molecular target: HIV-1 Env of strain Ce2010_F5 (HIV-1)
[30] = molecular target: HIV-1 Env of strain Ce703010054_2A2 (HIV-1)
[31] = molecular target: HIV-1 Env of strain Du156.12 (HIV-1)
[32] = molecular target: HIV-1 Env of strain Du172.17 (HIV-1)
[33] = molecular target: HIV-1 Env of strain Du422.1 (HIV-1)
[34] = molecular target: HIV-1 Env of strain HIV-16845-2.22 (HIV-1)
[35] = molecular target: HIV-1 Env of strain P1981_C5_3 (HIV-1)
[36] = molecular target: HIV-1 Env of strain PVO.4 (HIV-1)
[37] = molecular target: HIV-1 Env of strain Q23.17 (HIV-1)
[38] = molecular target: HIV-1 Env of strain Q461.e2 (HIV-1)
[39] = molecular target: HIV-1 Env of strain Q842.d12 (HIV-1)
[40] = molecular target: HIV-1 Env of strain R1166.c01 (HIV-1)
[41] = molecular target: HIV-1 Env of strain REJO4541.67 (HIV-1)
[42] = molecular target: HIV-1 Env of strain RHPA4259.7 (HIV-1)
[43] = molecular target: HIV-1 Env of strain SC422661.8 (HIV-1)
[44] = molecular target: HIV-1 Env of strain T257-31 (HIV-1)
[45] = molecular target: HIV-1 Env of strain T278-50 (HIV-1)
[46] = molecular target: HIV-1 Env of strain THRO4156.18 (HIV-1)
[47] = molecular target: HIV-1 Env of strain TRJO4551.58 (HIV-1)
[48] = molecular target: HIV-1 Env of strain TRO.11 (HIV-1)
[49] = molecular target: HIV-1 Env of strain WEAU_d15_410_787 (HIV-1)
[50] = molecular target: HIV-1 Env of strain WITO4160.33 (HIV-1)
[51] = molecular target: HIV-1 Env of strain X1193_c1 (HIV-1)
[52] = molecular target: HIV-1 Env of strain X1254_c3 (HIV-1)
[53] = molecular target: HIV-1 Env of strain ZM135M.PL10a (HIV-1)
[54] = molecular target: HIV-1 Env of strain ZM197M.PB7 (HIV-1)
[55] = molecular target: HIV-1 Env of strain ZM214M.PL15 (HIV-1)
[56] = molecular target: HIV-1 Env of strain ZM247v1(Rev-) (HIV-1)
[57] = molecular target: HIV-1 Env of strain ZM53M.PB12 (HIV-1)

NIH45-46 G54W IgG (antibody)
In vitro neutralization IC80 [1]: 0.11 µg/mL | In vitro neutralization IC80 [2]: 0.003 µg/mL | In vitro neutralization IC80 [3]: 0.008 µg/mL | In vitro neutralization IC80 [4]: 0.165 µg/mL | In vitro neutralization IC80 [5]: 0.16 µg/mL | In vitro neutralization IC80 [6]: > 50 µg/mL | In vitro neutralization IC80 [7]: 0.56 µg/mL | In vitro neutralization IC80 [8]: 0.023 µg/mL | In vitro neutralization IC80 [9]: 0.04 µg/mL | In vitro neutralization IC80 [10]: > 50 µg/mL | In vitro neutralization IC80 [11]: > 50 µg/mL | In vitro neutralization IC80 [12]: 0.13 µg/mL | In vitro neutralization IC80 [13]: > 50 µg/mL | In vitro neutralization IC80 [14]: 0.033 µg/mL | In vitro neutralization IC80 [15]: > 50 µg/mL | In vitro neutralization IC80 [16]: 0.63 µg/mL | In vitro neutralization IC80 [17]: 0.91 µg/mL | In vitro neutralization IC80 [18]: 0.17 µg/mL | In vitro neutralization IC80 [19]: > 50 µg/mL | In vitro neutralization IC80 [20]: > 50 µg/mL | In vitro neutralization IC80 [21]: 0.127 µg/mL | In vitro neutralization IC80 [22]: 0.48 µg/mL | In vitro neutralization IC80 [23]: 0.16 µg/mL | In vitro neutralization IC80 [24]: 0.196 µg/mL | In vitro neutralization IC80 [25]: 0.005 µg/mL | In vitro neutralization IC80 [26]: 0.05 µg/mL | In vitro neutralization IC80 [27]: 0.089 µg/mL | In vitro neutralization IC80 [28]: 0.039 µg/mL | In vitro neutralization IC80 [29]: 0.187 µg/mL | In vitro neutralization IC80 [30]: 0.077 µg/mL | In vitro neutralization IC80 [31]: 0.005 µg/mL | In vitro neutralization IC80 [32]: 42.9 µg/mL | In vitro neutralization IC80 [33]: > 50 µg/mL | In vitro neutralization IC80 [34]: 2.1 µg/mL | In vitro neutralization IC80 [35]: 0.07 µg/mL | In vitro neutralization IC80 [36]: 0.16 µg/mL | In vitro neutralization IC80 [37]: 0.03 µg/mL | In vitro neutralization IC80 [38]: 0.091 µg/mL | In vitro neutralization IC80 [39]: 0.025 µg/mL | In vitro neutralization IC80 [40]: 0.51 µg/mL | In vitro neutralization IC80 [41]: 0.013 µg/mL | In vitro neutralization IC80 [42]: 0.007 µg/mL | In vitro neutralization IC80 [43]: 0.07 µg/mL | In vitro neutralization IC80 [44]: 0.45 µg/mL | In vitro neutralization IC80 [45]: > 50 µg/mL | In vitro neutralization IC80 [46]: 1.81 µg/mL | In vitro neutralization IC80 [47]: 0.05 µg/mL | In vitro neutralization IC80 [48]: 0.13 µg/mL | In vitro neutralization IC80 [49]: 0.003 µg/mL | In vitro neutralization IC80 [50]: 0.04 µg/mL | In vitro neutralization IC80 [51]: 0.009 µg/mL | In vitro neutralization IC80 [52]: 0.018 µg/mL | In vitro neutralization IC80 [53]: 0.16 µg/mL | In vitro neutralization IC80 [54]: 0.18 µg/mL | In vitro neutralization IC80 [55]: 0.15 µg/mL | In vitro neutralization IC80 [56]: 2.6 µg/mL | In vitro neutralization IC80 [57]: 0.16 µg/mL

NIH45-46 G54Y IgG (antibody)
In vitro neutralization IC80 [1]: 0.09 µg/mL | In vitro neutralization IC80 [2]: 0.015 µg/mL | In vitro neutralization IC80 [3]: 0.021 µg/mL | In vitro neutralization IC80 [4]: 0.236 µg/mL | In vitro neutralization IC80 [5]: 0.189 µg/mL | In vitro neutralization IC80 [6]: > 50 µg/mL | In vitro neutralization IC80 [7]: 0.81 µg/mL | In vitro neutralization IC80 [8]: 0.037 µg/mL | In vitro neutralization IC80 [9]: 3.85 µg/mL | In vitro neutralization IC80 [10]: > 50 µg/mL | In vitro neutralization IC80 [11]: > 50 µg/mL | In vitro neutralization IC80 [12]: 0.24 µg/mL | In vitro neutralization IC80 [13]: > 50 µg/mL | In vitro neutralization IC80 [14]: 0.059 µg/mL | In vitro neutralization IC80 [15]: > 50 µg/mL | In vitro neutralization IC80 [16]: 0.9 µg/mL | In vitro neutralization IC80 [17]: 1.83 µg/mL | In vitro neutralization IC80 [18]: 0.27 µg/mL | In vitro neutralization IC80 [19]: > 50 µg/mL | In vitro neutralization IC80 [20]: > 50 µg/mL | In vitro neutralization IC80 [21]: 0.264 µg/mL | In vitro neutralization IC80 [22]: 2.4 µg/mL | In vitro neutralization IC80 [23]: 0.29 µg/mL | In vitro neutralization IC80 [24]: 0.263 µg/mL | In vitro neutralization IC80 [25]: 0.027 µg/mL | In vitro neutralization IC80 [26]: 0.11 µg/mL | In vitro neutralization IC80 [27]: 0.134 µg/mL | In vitro neutralization IC80 [28]: 0.065 µg/mL | In vitro neutralization IC80 [29]: 0.235 µg/mL | In vitro neutralization IC80 [30]: 0.07 µg/mL | In vitro neutralization IC80 [31]: 0.026 µg/mL | In vitro neutralization IC80 [32]: > 50 µg/mL | In vitro neutralization IC80 [33]: > 50 µg/mL | In vitro neutralization IC80 [34]: 2.75 µg/mL | In vitro neutralization IC80 [35]: 0.09 µg/mL | In vitro neutralization IC80 [36]: 0.18 µg/mL | In vitro neutralization IC80 [37]: 0.06 µg/mL | In vitro neutralization IC80 [38]: 0.103 µg/mL | In vitro neutralization IC80 [39]: 0.045 µg/mL | In vitro neutralization IC80 [40]: 0.84 µg/mL | In vitro neutralization IC80 [41]: 0.02 µg/mL | In vitro neutralization IC80 [42]: 0.02 µg/mL | In vitro neutralization IC80 [43]: 0.09 µg/mL | In vitro neutralization IC80 [44]: 0.67 µg/mL | In vitro neutralization IC80 [45]: > 50 µg/mL | In vitro neutralization IC80 [46]: 2.14 µg/mL | In vitro neutralization IC80 [47]: 0.07 µg/mL | In vitro neutralization IC80 [48]: 0.22 µg/mL | In vitro neutralization IC80 [49]: 0.008 µg/mL | In vitro neutralization IC80 [50]: 0.09 µg/mL | In vitro neutralization IC80 [51]: 0.024 µg/mL | In vitro neutralization IC80 [52]: 0.041 µg/mL | In vitro neutralization IC80 [53]: 0.3 µg/mL | In vitro neutralization IC80 [54]: 0.21 µg/mL | In vitro neutralization IC80 [55]: 0.23 µg/mL | In vitro neutralization IC80 [56]: 3.57 µg/mL | In vitro neutralization IC80 [57]: 0.22 µg/mL
